Data from the DeepSol protein solubility set.

assay: soluble on expression in E. coli; label from the status in PepcDB or PDB records

Row | Sequence | soluble on expression in E. coli
1 | MGSDKIHHHHHHATWITTLGGMDWPRNKAVNASGIRRQQKELCDILDRLKAANFNTVLLQTRLRGDMIYPSAIETFGESLTGSTGGNPGYDPLAFAIGECHKRGMELHAWIVTIPAGNTRQVQLQGRSSVVRKNRTICKLYKGNWYLDPGNPGTKEYLSCIVKEITSRYDIDGIHFDYIRYPEQADNFPDKDTYRKYGKGKELKQWRRDNITDIVHRLYTDIKTIKPWVKVSSSPIGKYRDTNRYPSRGWNAYHVVYQDAQKWLKEGIHDALFPMMYFQGNNFYPFALDWKENCGNRWIVPGLGIYFLSPDEQNWPLDEIVRQLHFTRQIKLNGQAYFRNRFLLNNTKGIWDELQENFYTTPALIPPMTWMDSIPPSTPAMPSLQLLPDGKMHMSWQISTDNNGGLVTYHLYASDTYPVDITDAGNLLETYLTHTEYEYTPISPWRQKRYFAVTAADRFGNESAPLELNAISETDMPLLNDGDILTLPEIKEAKTVKIFTVTGEEIKYFVYAPQMSIASLPGGFYTVYILNNAGAQTFVGTIVK | not soluble
2 | MPNAGELASLMEENAMPKVVVRNFAISLDGYGAGPDQSLQNPLGVKGEELHQWAFKTRTFHRMFGKEGGSTGTDENFSEKSFENIGAWVLGRNMFGPVRGAWPDESWKGWWGEEPPYHVPVFVLTHHARPSFTMKGGTEFHFVTDGIEAALDRALTAANGKDVRIGGGVSTIRQYMAAGMIDELHLALAPVFLGKGEQLFEGLDLPALGYRCTGTVAGEGATHLIIEKV | not soluble
3 | MVLLHKSTHIFPTDFASVSRAFFNRYPNPYSPHVLSIDTISRNVDQEGNLRTTRLLKKSGKLPTWVKPFLRGITETWIIEVSVVNPANSTMKTYTRNLDHTGIMKVEEYTTYQFDSATSSTIADSRVKFSSGFNMGIKSKVEDWSRTKFDENVKKSRMGMAFVIQKLEEARNPQF | not soluble
4 | MPKSNPVTPNKQPSEDWNELLTEFRGKGGRALQKTFIRKLWAVQEDIIANANPSTLRCIFFAPALLICPEGIKLSAEILPKIGVGNGLILLEKLILKFNLTDTECQRYGEVFVTAWRNAYQEANFDLTEELETDVISVMCQHALYAHRPTCTKFQNVIAAFAHAKKLDKSVDEMVTRLLNGCLYRALDAPNYIVQSSAAEVFFNFYPLIGEDTEDMDRIMENQHRYMMDLLRSDVISIRSEATKHVLKAISEFWLLIPKNIVKELMGYIIDTVAKDTVVSVRVAVFEGLNEMAFVPACLTAFEYGLKCAVDPALQDKSERVRLAAYQIISRLKNHKFISVFDIITRDDAIAKLDLENVETCRRQLIPIMHICLPISKSLDEAYYRPRVNYMLGKSRLALLSYFRLLGPMKIIDASQASKLIEMFITWAYRYLRKKDGPPLPETAEGYKKARAYLECALILYMSCKGMLMSDGDGTSKAKCDQIFGKVVKEIFEKYANTPILGTATAISSVIPKDYLKSIANDVLARLEDDDVPPEAVEPFLESAIHFNPDSVFDSFDSGLNVLVNLYGTKQSKKKRRELEDPEDVLIMTLNRLKYLLQSHSTSNLIAMKDEYRTKVLDLLKKIDLIREGIEIRLAKEEGQEHTLSDDVLLSILEFRFILPFFAATNGSEDAADRNQTIESMKNLLLWFEKNISSQMATFGEHNQDFLIQLTSTFLNCVNVSLSAYDFKTRPVEFEDEEDNENRDPREENDAAKDQATVAEVISRIVKSFCNSSTPFEIFRPALRVGTTLCDESYSEVHHEMALLLRFIPKWMNKQCDLMEDDEENIFKNHREIVESLRQFHKRVSETDYWDEDSAKRMMHHFMLFSIVSASSKNDDEAYDDPRDEDYKPPHFISLALIKFILKEKSLTEDIIEEISTNYIPEDSKYFTAEEGELKTDEKLSKLAALSQLLRILERYSKFHGKLIKEAIDKCTTRVLDCFANASDLNTVAHHILNSLSSLLDVQLPDENRL | not soluble
5 | MIDHLSRAVISDPEQNLAIEQKESDHILPDSKMTPLRFRKRTLHETKIRTHSTLTENVLSHKLQFDGRIVSRTNVLPFIQKSIYSHQCGRRKGKQYRLGDFYVGATLTFLSSDHLSLPESIKENTLLKLRITNIDQIALDSLKTASMEQEDDIIIQETNDRLVFKAIQDVLKEKLHKRGVRILTGLGKYFQQLDKEGNGLLDKADFKQALKVFHLEVSEKDFESAWLILNDNGNGKVDYGEFKRGIIGEMNEYRKSYVRKAFMKLDFNKSGSVPIINIRKCYCAKKHSQVISG | soluble
6 | MSLEQHGNVVSVGLKLYNEILKETITRFKERRIEKKHSVNVEIENPPGRFFIPEDYVQNPVERLRLYRRLASSLDEEDLEEILEEMKDRFGEPPEEVKLLVDYFRLRVRASKLGIKKIRFDHSMVEIFPSRNSPFLNHPRYDRRSGSVVLYTRKDPVEFLMDMLKKEGHHHHHH | soluble
7 | MGSDKIHHHHHHMSYSAKVLWGEGLFLRPQHFQRQDAYHEARLFESIQAIQPYNWGVRSVRFDRDALGSNVLRASELSLVFPDGALYSAPQADELPPPIALDTLPEGINEFTFYLALHPLRETGSNYADDRDAGFVSRFVSEQASVADHFTDAAEADITFLKTNVKLIAHSEPRDQLLSIPLVRVRRTATSGFEIDDGFVPPCLAIEASPILHQRLRQLIDALQAKVNALYGFHREPTKNIIEFRSGDIASFWLLHTASAAFAALAHLHQHSALHPERLFQELLRLAGQLMTFSKGYVLADLPAYRHDDPGPGFARLDSILRELLETVISTRYFAITLEEVRPSFHVGRLDSGKIDDKTAFYLAVSADMPSVELVDAVPARFKVGAPDDVDKLVLSAMPGVRLAYTPQVPPAIPVRPGACYFALDARSPLYERMLQAQSAMIYAPSGINDLKFELIAVTS | not soluble
8 | MDLWLLANDESCLRHQAFWHSWQGPLVERQQSNNITLTDVLEGVHAYLQGHLDDFEIQEAFVTKELPLKLAQLRERWERYVVLNAELAARGRGGFERNRRDD | soluble
9 | MQSVLNLGKTTVTTCTFLRAASTSLQGKGPLKTNWKENVVYLYQFPRPANRQPNLSPYCLKIETFLRANRIKHEVVGTWLTLRQSPRGLLPFIELNGQQISDSQVIVWKLQKHFDLDDKLEGSDRGTARAVERMIDLSTNYALLVDKTVNNAHLLLARQVSNLPLPSFLTNYLAKGFSQTARKRVNGVLGKLDVAEQKELLRRDIRAIDDILGDKKFLFGDRITSVDCSVFGQIGAVFYLPYRQQISDLLEDDFPRVRAYCDRIRQHYYPEWRDD | not soluble
10 | DNMFCNKEYCNRLKDENNCISNLQVEDQGNCDTSWIFASKYHLETIRCMKGYEPTKISALYVANCYKGEHKDRCDEGSSPMEFLQIIEDYGFLPAESNYPYNYVKVGEQCPKVEDHWMNLWDNGKILHNKNEPNSLDGKGYTAYESERFHDNMDAFVKIIKTEVMNKGSVIAYIKAENVMGYEFSGKKVKNLCGDDTADHAVNIVGYGNYVNSEGEKKSYWIVRNSWGPYWGDEGYFKVDMYGPTHCHFNFIHSVVIFNVDLPMN | soluble
11 | MGSDKIHHHHHHMINQVYQLVSPRQFEATFKTIDLHNHNSKVIVRPLYLSICAADLRYYCGNRDSKILSKKLPMSLIHESVGEIVYDSEHRLKNGTKVVMIPNTPSKSHNIIAENYLTSSHFKSSGYDGFMQDYIVMKPDRVVTLPQEIDLSVASYTELVTVSVHAIDRFQSKAIPQFESLGIWGDGNLGYITAVLLKKLYPTTKIIVFGKTLYKLSRFSFVDEIIQIDNIPQHIKIDHAFECVGGKGSQQAIEQIINIINPEGSIALLGVSELPIQVNTRMVLEKGLTIIGSSRSGLKDFEKTIELYRKYPEVLNQLALLKGKEFEINTIEDLITAFEYDISNAWGKTVLKWNI | not soluble
12 | MSRVVLNVDSYEGNDTPSAEIARFVVLYGKASTRKHKIWEGDGLLVCFTDSCLLKSEDERDVICRSSALKGLDQLEDGRIINIGSWSVEIQERIATGPPQKPISAQKPEIQSPMPPMTPGNSENVENRKRGGFSSPFLGIELPKPLSKRSATFVPPLIGSESSSSGGSSSSTIQEKIPPFILNEQDILDRKTTSAVTVDTRFARHLRPHQKSGIQFIFDRLRRGSGKNGGGGGAILADDMGLGKSLQTMAATWALLKGSKTAQQLANSCLIIVPSSLVNNWKAEFDKWWRLMRFPAVIALTANDITTYQSTIKLMPYLVISYDLAQRHVEKLKIIRFDVMVCDEGHKLKNLDGKLRKTLLSLEIPRRLILTGTPMQNDFEEFYSLLDFVRPSVFGSIVEFRKMCSDRPEQLNELIDECMLRRTAADVDLKHLPEKHEYILFCAASPIQKHVHSEICDYMTGDALSLIFFARQLANHPKLLLDNLREKTEKSKAHKHSPLLLAFDGAHMPRGGVKESGKLTALVDMIKCFRLLQECTVIVSNYIETLDMIQQLCEYLNFKVLRLDGKTQVPDRQKLVRTFNDHRDPSNIFLLSTKAGGVGLNLIGASRLVLFDSDWNPANDQQAMARIWRDGQVRPCHIYRLITTGTIEEKMLQRQIKKTGLGCVIDAIEVGDTIATFTDEDLKDIFTFTGSATECNTHDLCECPCDGCGMLENEMDEEDDGDDVVENDAEKIDKSGKIDKIDSDDDEEADDEELEADVTDEVVEDSQEPPEATKPAVAAAGLRTIASLAELSRWRHFSPRHADTWHHFMTNAGLSQVDTDVELTFAFYQESQY | not soluble
13 | MGSDKIHHHHHHMTRRPPLINRLGATPVHPERDPAHPLVVFGDNRFCAGELLDVQKMAGPHMHSQIELNFVLEGSMTYWFDGRELTISEGRLCLFWGMIPHQVIDRREGTRFICLYVPMSVFLGLASLSQFRDSVFRGAVIEALHLRAWDREIFLRWRDELLGGDEGDIEIVRSELTARLMRIERDGWRDLREQGSALASLGQRDAGWMLHVEKMLRFIGEHAPDTISAEDVGRAAGLHPNYAMSLFKRAVGTTINQAIIRHRLDTAQSLLISSDMPITEVAYESGFGSLSTFYEAFQRRFMEKPVQYRRRMRAKGTAAQSIA | not soluble
14 | MKQFLITGGTGMVGSQLVNKLKNRDVHITILTRSDKQSDDPKISYVNWSKDGWMSQVPDIDVVVNLAGATLNKRWTPSYKQLIMTSRIQSTQSLVDLFSQREHKPEVLFNASAMGYYPPSLYHTYTEKYQTHPFDFLSDVVYQWERFAKRFESFGTRVVLGRFSMILSNDGGALQTMKLPYKFFVGGKLGSGFQWYSWIHINDLVRAILFTIDNPNAKGPFNMAAPIAERQNLFGYTLARVMHRPHETWVPSFLMRLALGEMSTVVLDTQKVLPNKLDALGFTFNYSNLKIAFEDLIDALEHHHHHH | not soluble
15 | MSEISQLTPQPLWQFFDKICSIPHPSKHEEALAQYIIEWATTEGLDVRRDPTGNVFIKKPATPGMEDRKGVVLQAHIDMVPQKNEDTEHDFTKDPIQPYIDGEWVTAKGTTLGADNGMGMASCLAVLASKELKHGPLEVLLTIDEEAGMTGAFGLEAGWLEGDILLNTDSEQEGEVYMGCAGGADGAIKLDIEREALPSGYITRQITLKGLKGGHSGCDIHTGRGNANKLLGRFLAGHAQELDLRLVEFRGGSLRNAIPREAFATIAVPAENEAKLAELFTFYTNLLKDELGKVETDIVSFNETASAEQVLTKITQSRFIATLNACPNGVIRMSDDIEGVVETSLNVGVITTDENSITILCLIRSLMDSGRSMVEGMLSSVAELAGAQVTFSGTYPGWKPDADSEIMHVFRDVYEGIYGNKPNIMVIHAGLECGLFKKPYPEMDMISFGPTIKFPHSPDEKVKIDTVALYWEQMVAILENIPKKLEHHHHHH | soluble
16 | MGSDKIHHHHHHMENKYLVSIIVPVHNTADYLHKCIESLRSQTLQQIEIILVDNLSVDGSSEICDEYAKIDKRIKVLHLSIAGLSIARNAGMRIASAPYIGFVDSDDYVEPAMFEKMLDAMVQSDAEIAYCNFLLEYEFKPNESPYRNSGDIVIRDPKNVLQDMMMEKVSCSACTKLYKSGFLTSLQFPEGKNYEDRLVMYEWVALCKKVVWVDSPFYHYVERQTSICHTMSPMNLYHYFLAEYARMRFMEKYSLFEEEDLFKIRTRLIGTCLTIFKEILLKVNLREFKEPVKDMRQKMKEIAALPEDTYELKYRRRVRKIAYHWHLYYLTHFLFKKGGDS | not soluble
